In US20140288003A1:

Molecular target: Smad3
Experiment: cell-based or functional assay

activation of the collagen 1α2 proximal promoter (luciferase assay, NIH 3T3 fibroblasts co-transfected with Scx and Smad3): 35 % increase
Substance: scleraxis (mouse Scx expressed from pECE-HA-FLAG-Scx) (from UniProt Q64124 1-207)
